Source: patent publication US20240270821A1, “GIP/GLP1/GCG TRI-RECEPTOR AGONISTS AND USES THEREOF” (priority 2023, published 2024)

B1: Example 502 (peptide)
chain: YXQGTXTSDXXIXLDXKAQXXFIEYLIEGGPSSGEPPPSGT
modifications: synthetic construct; SITE 2: note = 2-Aminoisobutyric Acid; SITE 6: note = alpha-methyl-2-fluoro-L-phenylalanine; SITE 10: note = 3-(4-Pyridyl)-L-alanine; SITE 11: note = alpha-methyl-L-serine; SITE 13: note = alpha-methyl-leucine; SITE 16: note = L-ornithine; SITE 17: note = Lysine is chemically mo
B2: Example 481 (peptide)
chain: YXQGTXTSDXXIXLDXKAQXXFIEXLIEGGPSSGEPEPSEG
modifications: synthetic construct; SITE 2: note = 2-Aminoisobutyric Acid; SITE 6: note = alpha-methyl-2-fluoro-L-phenylalanine; SITE 10: note = 3-(4-Pyridyl)-L-alanine; SITE 11: note = alpha-methyl-L-serine; SITE 13: note = alpha-methyl-leucine; SITE 16: note = L-ornithine; SITE 17: note = Lysine is chemically mo
B3: Example 475 (peptide)
chain: YXQGTXTSDXSIXLDXKAQXXFIEXLIEGGPSSGEPPPEEG
modifications: synthetic construct; SITE 2: note = 2-Aminoisobutyric Acid; SITE 6: note = alpha-methyl-2-fluoro-L-phenylalanine; SITE 10: note = 3-(4-Pyridyl)-L-alanine; SITE 13: note = alpha-methyl-leucine; SITE 16: note = L-ornithine; SITE 17: note = Lysine is chemically modified through conjugation of the epsil
B4: Example 476 (peptide)
chain: YXQGTXTSDXXIXLDXKAQXXFIEYLIEGGPSSGEPPPEEG
modifications: synthetic construct; SITE 2: note = 2-Aminoisobutyric Acid; SITE 6: note = alpha-methyl-2-fluoro-L-phenylalanine; SITE 10: note = 3-(4-Pyridyl)-L-alanine; SITE 11: note = alpha-methyl-L-serine; SITE 13: note = alpha-methyl-leucine; SITE 16: note = L-ornithine; SITE 17: note = Lysine is chemically mo
B5: Example 483 (peptide)
chain: YXQGTXTSDXXIXLDXKAQXNFIEYLIEGGPSSGEPPPEGE
modifications: synthetic construct; SITE 2: note = 2-Aminoisobutyric Acid; SITE 6: note = alpha-methyl-2-fluoro-L-phenylalanine; SITE 10: note = 3-(4-Pyridyl)-L-alanine; SITE 11: note = alpha-methyl-L-serine; SITE 13: note = alpha-methyl-leucine; SITE 16: note = L-ornithine; SITE 17: note = Lysine is chemically mo
B6: Example 474 (peptide)
chain: YXQGTXTSDXXIXLDXKAQXNFIEXLIEGGPSSGEPEPEEG
modifications: synthetic construct; SITE 2: note = 2-Aminoisobutyric Acid; SITE 6: note = alpha-methyl-2-fluoro-L-phenylalanine; SITE 10: note = 3-(4-Pyridyl)-L-alanine; SITE 11: note = alpha-methyl-L-serine; SITE 13: note = alpha-methyl-leucine; SITE 16: note = L-ornithine; SITE 17: note = Lysine is chemically mo
B7: Example 482 (peptide)
chain: YXQGTXTSDXXIXLDXKAQXNFIEYLIEGGPSSGEPPPEEG
modifications: synthetic construct; SITE 2: note = 2-Aminoisobutyric Acid; SITE 6: note = alpha-methyl-2-fluoro-L-phenylalanine; SITE 10: note = 3-(4-Pyridyl)-L-alanine; SITE 11: note = alpha-methyl-L-serine; SITE 13: note = alpha-methyl-leucine; SITE 16: note = L-ornithine; SITE 17: note = Lysine is chemically mo
B8: Example 477 (peptide)
chain: YXQGTXTSDXSIXLDXKAQXXFIEYLIEGGPSSGEPPPEEG
modifications: synthetic construct; SITE 2: note = 2-Aminoisobutyric Acid; SITE 6: note = alpha-methyl-2-fluoro-L-phenylalanine; SITE 10: note = 3-(4-Pyridyl)-L-alanine; SITE 13: note = alpha-methyl-leucine; SITE 16: note = L-ornithine; SITE 17: note = Lysine is chemically modified through conjugation of the epsil
B9: Example 492 (peptide)
chain: YXQGTXTSDXXIXLDXKAQXXFIEYLIEGGPSSGAPEPSEG
modifications: synthetic construct; SITE 2: note = 2-Aminoisobutyric Acid; SITE 6: note = alpha-methyl-2-fluoro-L-phenylalanine; SITE 10: note = 3-(4-Pyridyl)-L-alanine; SITE 11: note = alpha-methyl-L-serine; SITE 13: note = alpha-methyl-leucine; SITE 16: note = L-ornithine; SITE 17: note = Lysine is chemically mo
B10: Example 489 (peptide)
chain: YXQGTXTSDXSIXLDXKAQXXFIEYLIEGGPSSGEPPPSEG
modifications: synthetic construct; SITE 2: note = 2-Aminoisobutyric Acid; SITE 6: note = alpha-methyl-2-fluoro-L-phenylalanine; SITE 10: note = 3-(4-Pyridyl)-L-alanine; SITE 13: note = alpha-methyl-leucine; SITE 16: note = L-ornithine; SITE 17: note = Lysine is chemically modified through conjugation of the epsil
B11: Example 497 (peptide)
chain: YXQGTFTSDXSXXLDKKAQXAFIEXLIEGGPSSGAPPPSGS
modifications: synthetic construct; SITE 2: note = 2-Aminoisobutyric Acid; SITE 10: note = 3-(4-Pyridyl)-L-alanine; SITE 12: note = L-ornithine; SITE 13: note = alpha-methyl-leucine; SITE 17: note = Lysine is chemically modified through conjugation of the epsilon-amino group of the Lysine side chain with (2-[2-(2-
B12: Example 494 (peptide)
chain: YXQGTXTSDXSIXLDXKAQXXFIEYLLEGGPSSGEPPPEEG
modifications: synthetic construct; SITE 2: note = 2-Aminoisobutyric Acid; SITE 6: note = alpha-methyl-2-fluoro-L-phenylalanine; SITE 10: note = 3-(4-Pyridyl)-L-alanine; SITE 13: note = alpha-methyl-leucine; SITE 16: note = L-ornithine; SITE 17: note = Lysine is chemically modified through conjugation of the epsil

What was measured:
Assay in all cases: cell-based or functional assay
hGLP-1R = hGLP-1R (Homo sapiens, UniProt P43220)
Chain of hGLP-1R (P43220 24-463): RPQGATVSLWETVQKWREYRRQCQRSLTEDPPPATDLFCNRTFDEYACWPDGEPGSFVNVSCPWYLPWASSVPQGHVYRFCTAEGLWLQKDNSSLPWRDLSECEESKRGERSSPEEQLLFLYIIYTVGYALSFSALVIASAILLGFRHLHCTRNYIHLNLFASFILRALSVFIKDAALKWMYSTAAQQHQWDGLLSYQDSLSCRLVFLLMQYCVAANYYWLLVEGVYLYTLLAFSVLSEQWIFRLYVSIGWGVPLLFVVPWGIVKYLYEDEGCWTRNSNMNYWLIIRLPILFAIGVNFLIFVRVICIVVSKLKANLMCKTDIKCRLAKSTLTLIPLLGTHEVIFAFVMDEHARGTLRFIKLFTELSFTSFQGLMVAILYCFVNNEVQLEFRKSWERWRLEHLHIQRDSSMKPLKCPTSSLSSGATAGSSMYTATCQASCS

[1] = molecular target: human glucagon receptor (human) (UniProt P47871)
Chain of human glucagon receptor (human) (P47871 26-477): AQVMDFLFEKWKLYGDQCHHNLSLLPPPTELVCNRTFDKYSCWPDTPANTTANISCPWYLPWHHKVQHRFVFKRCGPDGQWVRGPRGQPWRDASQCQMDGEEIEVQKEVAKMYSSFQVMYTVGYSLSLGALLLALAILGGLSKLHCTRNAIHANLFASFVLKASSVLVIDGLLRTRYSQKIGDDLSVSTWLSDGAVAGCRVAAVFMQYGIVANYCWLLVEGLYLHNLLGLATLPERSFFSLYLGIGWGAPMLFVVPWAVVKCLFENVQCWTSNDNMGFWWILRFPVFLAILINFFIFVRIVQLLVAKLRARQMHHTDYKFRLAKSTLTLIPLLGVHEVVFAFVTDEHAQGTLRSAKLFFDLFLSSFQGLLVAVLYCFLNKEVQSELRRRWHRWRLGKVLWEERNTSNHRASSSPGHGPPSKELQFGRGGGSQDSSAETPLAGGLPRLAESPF

[2] = molecular target: T1, human GIP receptor (human) (UniProt P48546)
T1 sequence (looked up): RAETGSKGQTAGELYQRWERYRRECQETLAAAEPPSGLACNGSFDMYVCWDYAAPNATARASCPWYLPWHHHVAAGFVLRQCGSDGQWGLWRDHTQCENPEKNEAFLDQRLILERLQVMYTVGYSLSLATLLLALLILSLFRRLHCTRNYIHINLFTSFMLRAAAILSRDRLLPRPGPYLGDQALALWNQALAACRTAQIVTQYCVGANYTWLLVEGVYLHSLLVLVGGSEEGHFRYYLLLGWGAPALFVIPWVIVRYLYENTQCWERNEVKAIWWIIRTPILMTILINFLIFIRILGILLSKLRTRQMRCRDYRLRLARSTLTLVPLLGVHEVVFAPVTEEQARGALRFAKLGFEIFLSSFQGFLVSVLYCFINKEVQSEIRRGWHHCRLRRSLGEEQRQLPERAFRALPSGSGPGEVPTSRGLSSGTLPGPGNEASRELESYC

| Binder | Relative cAMP EC50 (hGLP-1R) [nM] | cAMP Rel EC50 (1% HSA) (hGLP-1R) [nM] | Relative cAMP EC50 [1] [nM] | cAMP Rel EC50 (1% HSA) [1] [nM] | Relative cAMP EC50 [2] [nM] | cAMP Rel EC50 (1% HSA) [2] [nM] | Relative cAMP EC50, nM (0.1% casein) (hGLP-1R) [nM] | cAMP Rel EC50 (receptor-expressing HEK-293 cells, 1% HSA) (hGLP-1R) [nM] | Relative cAMP EC50, nM (0.1% casein) [1] [nM] | cAMP Rel EC50 (receptor-expressing HEK-293 cells, 1% HSA) [1] [nM] | Relative cAMP EC50, nM (0.1% casein) [2] [nM] | cAMP Rel EC50 (receptor-expressing HEK-293 cells, 1% HSA) [2] [nM] |
| --- | --- | --- | --- | --- | --- | --- | --- | --- | --- | --- | --- | --- |
| B1 | 0.326 | 30.6 | 3.8 | 395 | 0.0337 | 2.42 | – | – | – | – | – | – |
| B2 | – | – | – | – | – | – | 0.204 | 14.2 | 1.22 | 100 | 0.0164 | 1.19 |
| B3 | – | – | – | – | – | – | 0.254 | 18.6 | 2.24 | 254 | 0.0173 | 1.85 |
| B4 | – | – | – | – | – | – | 0.164 | 14.6 | 1.34 | 90.2 | 0.0131 | 1.29 |
| B5 | – | – | – | – | – | – | 0.188 | 18.2 | 1.77 | 231 | 0.0133 | 1.17 |
| B6 | – | – | – | – | – | – | 0.236 | 10.6 | 3.88 | 166 | 0.0125 | 0.743 |
| B7 | – | – | – | – | – | – | 0.177 | 14.9 | 1.41 | 325 | 0.0139 | 1.58 |
| B8 | – | – | – | – | – | – | 0.173 | 18.7 | 5.26 | 716 | 0.0127 | 1.44 |
| B9 | – | – | – | – | – | – | 0.146 | 9.85 | 1.35 | 128 | 0.0119 | 0.84 |
| B10 | – | – | – | – | – | – | 0.172 | 11.8 | 2.31 | 523 | 0.0121 | 1.25 |
| B11 | 1.08 | 161 | 2.7 | 418 | 0.297 | 32.6 | – | – | – | – | – | – |
| B12 | – | – | – | – | – | – | 0.211 | 19.9 | 1.26 | 333 | 0.014 | 1.08 |
